Laboratory results taken from patent US20260263595A1 (BETH ISRAEL DEACONESS MEDICAL CENTER, published 2026).

Target: T1, human CD40 on human B cells (CD20+ cells of human PBMCs) (human, UniProt P25942 21-277)
T1 construct: whole, on cells; also called native CD40 on human blood B cells; human CD20+ B cells
Assay: flow cytometry on human PBMCs, CD20+ gate (FIG. 2A)
Method: The CD40 antibody 2C10 was characterized with respect to its ability to affect B cell activation both using rhesus monkey and human peripheral blood mononuclear cells (PBMCs). CD20 expression was chosen as being an indicator of B cells, and expression of CD23, CD80, and CD86 is associated with B cell activation. 2C10 was first assessed for its ability to bind to […]. Rhesus or human PBMCs were incubated with fluorochrome-conjugated 2C10 and an anti-CD20 antibody. Flow cytometric analysis was used to confirm the binding of 2C10 to human and rhesus CD20+ B cells (FIG. 2A). In another set of experiments, PBMCs from either rhesus monkey or humans were cultured either in the presence or absence of CD154⁺ Jurkat D1.1 cells, an immortalized T lymphocyte cell line. Activation of B cells was determined by measuring expression of three markers (CD23, CD80, and CD86) in CD20⁺ cells present in the PBMCs.

T1 sequence (P25942 21-277): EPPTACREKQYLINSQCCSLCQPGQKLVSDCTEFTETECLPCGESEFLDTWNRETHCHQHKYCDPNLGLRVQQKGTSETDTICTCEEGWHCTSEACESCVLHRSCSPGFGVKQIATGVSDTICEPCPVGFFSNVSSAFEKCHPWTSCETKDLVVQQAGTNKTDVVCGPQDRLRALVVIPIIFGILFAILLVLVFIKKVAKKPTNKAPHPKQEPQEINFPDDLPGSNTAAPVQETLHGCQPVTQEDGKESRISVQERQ

B1: anti-CD40 antibody 2C10 (antibody, mouse IgG1, V domains shown)
VH: QVQLQQSGAELAKPGASVKMSCKASGYTFTNYWMHWVKQRPGQGLEWIGYINPSNDYTKYNQKFKDKATLTADKSSNTAYMQLGSLTSEDSAVYYCARQGFPYWGQGTLVTVS
VL: QIVLTQSPAIMSASPGEKVTMTCSASSSVSYMHWYHQRSGTSPKRWIYDTSKLASGVPARFSGSGSGTSYSLTISSMEAEDAATYYCHQLSSDPFTFGSGTKLEIK
notes: also called 2C10 antibody; APC-conjugated 2C10
- binding result: binds
